This is an account of results in PMC8409457 (2021).

One test has as its target MDM2 (UniProt Q00987 1-491). Description: FP; reduced.
The target in test [1] is T1, Bcl-2 (UniProt P10415 1-239). Description: FP.
Test [2] has as its target T1, Bcl-2. Nature of the test: SPR.

Bridges are numbered along the chain shown (N, C = ends). Where no end group is shown, it is not given here.

T1 sequence (P10415 whole entry): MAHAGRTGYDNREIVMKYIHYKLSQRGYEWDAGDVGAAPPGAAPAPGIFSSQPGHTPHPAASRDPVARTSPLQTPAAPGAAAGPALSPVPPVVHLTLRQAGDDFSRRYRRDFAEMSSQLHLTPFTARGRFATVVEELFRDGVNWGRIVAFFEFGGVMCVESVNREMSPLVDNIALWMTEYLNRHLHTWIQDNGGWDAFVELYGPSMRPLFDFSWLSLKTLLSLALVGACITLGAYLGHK
MDM2, sequence (Q00987 whole entry): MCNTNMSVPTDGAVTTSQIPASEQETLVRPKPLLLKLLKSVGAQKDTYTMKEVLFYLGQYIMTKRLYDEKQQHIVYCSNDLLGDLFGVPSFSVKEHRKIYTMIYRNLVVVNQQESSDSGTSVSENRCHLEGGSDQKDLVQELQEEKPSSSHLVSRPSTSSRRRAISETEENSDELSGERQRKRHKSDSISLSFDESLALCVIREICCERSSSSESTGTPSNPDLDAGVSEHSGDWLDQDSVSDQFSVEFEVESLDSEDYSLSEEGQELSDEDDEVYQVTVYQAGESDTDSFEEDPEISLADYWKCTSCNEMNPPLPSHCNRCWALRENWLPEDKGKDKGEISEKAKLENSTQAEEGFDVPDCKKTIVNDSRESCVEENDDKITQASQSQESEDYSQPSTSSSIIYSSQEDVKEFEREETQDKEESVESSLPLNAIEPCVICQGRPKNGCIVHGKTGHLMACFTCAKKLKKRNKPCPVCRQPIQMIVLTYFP

Turning to GCEKATESESPCPCIFPELCPWIVCC (cysteines reduced (no disulfide bonds)) [reduced linear peptide 15], in the test with MDM2, the affinity corresponds to a Ki of 1120 nM.
Take GCMILLDTDIWCPCSHPYACPENICC (disulfide 12-26 (inferred); disulfide 14-20, 2-25) [oxidized peptide 16]: in the test with Bcl-2 [1], the Ki was determined as 770 nM. In the test with Bcl-2 [2], this molecule yielded a koff of 0.0498 s⁻¹.
